Assays:
huIL-27 [1] = target: T1, huIL-27 (Homo sapiens, UniProt Q14213+Q8NEV9); experiment: Phospho-STAT3 (BIO-PLEX) neutralization of IL-27 by soluble receptors, total human PBMCs; type: cell-based; conditions: ligand huIL-27 at EC90 (2 nM)
T1 construct: purchased R&D Systems
T1 sequence (Q8NEV9 29-243): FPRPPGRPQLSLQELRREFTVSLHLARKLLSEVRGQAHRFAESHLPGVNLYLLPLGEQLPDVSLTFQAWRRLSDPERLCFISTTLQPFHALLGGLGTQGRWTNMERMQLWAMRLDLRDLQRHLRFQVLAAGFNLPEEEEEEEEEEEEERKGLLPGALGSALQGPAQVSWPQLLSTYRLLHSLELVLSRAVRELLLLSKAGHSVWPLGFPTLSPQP
T1 sequence (Q14213 21-229): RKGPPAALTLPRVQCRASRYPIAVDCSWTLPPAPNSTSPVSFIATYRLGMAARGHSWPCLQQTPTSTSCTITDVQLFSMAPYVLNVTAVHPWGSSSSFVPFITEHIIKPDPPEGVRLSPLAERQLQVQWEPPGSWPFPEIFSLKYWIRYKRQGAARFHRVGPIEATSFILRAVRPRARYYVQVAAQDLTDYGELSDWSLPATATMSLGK
From the text: (§1) Whole mouse spleens were harvested from C57 B1/6 mice and washed two times with 1×PBS before being plated out at 2×10^5 cells/well in assay media (RPMI 1640 plus 10% fetal bovine serum) in 96-well, round-bottom tissue culture plates. Total human PBMC (peripheral blood mononuclear cells) were thawed from a frozen vial collected from a leukapherisis donation and washed two times with 1×PBS before being plated out at 10^6 cells/well in assay media in 96-well, round-bottom tissue culture plates. […] Following pre-incubation, treatments were added to the plates containing the cells and incubated together at 37° C. for 15 minutes.
(§2) Following incubation, cells were washed with ice-cold wash buffer (BIO-PLEX Cell Lysis Kit, BIO-RAD Laboratories, Hercules, Calif.) and put on ice to stop the reaction according to manufacturer's instructions. […]
(§3) Capture beads (BIO-PLEX Phospho-Stat3 Assay, BIO-RAD Laboratories) were combined with 50 μL of 1:1 diluted lysates and added to a 96-well filter plate according to manufacture's instructions (BIO-PLEX Phosphoprotein Detection Kit, BIO-RAD Laboratories). […] After the final wash, beads were resuspended in 125 μL/well of bead suspension buffer, shaken for 30 seconds, and read on an array reader (BIO-PLEX, BIO-RAD Laboratories) according to the manufacture's instructions. Data were analyzed using analytical software (BIO-PLEX MANAGER 3.0, BIO-RAD Laboratories). […]

muIL-27 [2] = target: T2, muIL-27 (Mus musculus, UniProt O35228+Q8K3I6); experiment: as above; type: cell-based; conditions: ligand muIL-27 at EC90 (2 nM)
T2 construct: purchased R&D Systems
T2 sequence (Q8K3I6 29-234): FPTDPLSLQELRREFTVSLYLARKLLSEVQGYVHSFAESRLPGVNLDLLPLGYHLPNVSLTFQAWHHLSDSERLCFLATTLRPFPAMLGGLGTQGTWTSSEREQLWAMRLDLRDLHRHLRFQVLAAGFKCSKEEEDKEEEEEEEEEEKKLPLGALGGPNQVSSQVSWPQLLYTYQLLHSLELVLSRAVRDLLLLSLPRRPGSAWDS
T2 sequence (O35228 19-228): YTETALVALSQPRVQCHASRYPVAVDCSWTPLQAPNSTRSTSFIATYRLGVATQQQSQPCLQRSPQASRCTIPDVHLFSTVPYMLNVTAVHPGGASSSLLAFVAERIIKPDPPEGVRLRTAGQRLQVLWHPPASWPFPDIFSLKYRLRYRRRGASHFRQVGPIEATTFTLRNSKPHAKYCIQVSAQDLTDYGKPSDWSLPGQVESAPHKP
From the text: as §1, §2, §3

[3] = Pharmacokinetics of soluble receptors in female C57B1/6 mice (serum ELISA, noncompartmental analysis); type: in vivo, mouse; conditions: for AUCINF: extrapolated to infinity
Experimental: Studies were performed to evaluate the pharmacokinetics of the mouse (IL-27RAm(mFc1)) and human (IL-27RA-Fc5) soluble receptors in female C57B1/6 mice.
Serum was generated from each sample and analyzed by a qualified enzyme-linked immunosorbant assay (ELISA). The resulting mean serum concentration versus time profiles were then subjected to noncompartmental pharmacokinetic analyses. The following pharmacokinetic parameters were calculated: C0 and Cmax (extrapolated concentration at time zero and maximum serum concentration, respectively), Tmax (time to achieve maximum concentration), t1/2 λz (terminal half-life), AUC0-t (area under the concentration versus time curve from time zero to the last measurable time point), AUCINF (area under the concentration versus time curve extrapolated to infinity), C1 or C1/F (clearance or clearance divided by bioavailable fraction, respectively), VSS or VZ/F (steady state volume of distribution or volume of distribution divided by the bioavailable fraction, respectively), and F (bioavailable fraction).

huIL-27 [4] = target: T1, huIL-27; experiment: Phospho-STAT3 (BIO-PLEX) neutralization of IL-27 by soluble receptors, mouse spleens; type: cell-based; conditions: ligand huIL-27 at EC90 (2 nM)
From the text: as §1, §2, §3

muIL-27 [5] = target: T2, muIL-27; experiment: as above; type: cell-based; conditions: ligand muIL-27 at EC90 (0.2 nM)
From the text: as §1, §2, §3

- IC50 (huIL-27 [1]): 1370 nM
- IC50 (muIL-27 [2]): 4.83 nM
- IC50 (huIL-27 [4]): 9.3 nM
- IC50 (muIL-27 [5]): 0.18 nM
B1: IL-27RAm(mFc1): Extracellular domain of mouse IL27RA fused to a wild type BALB/c mouse gamma2a constant region Fc tag (protein)
chain: MNRLERVALARLETPRLEGLLELELESLEMSLELELEGTRPRHGSPRGPRLEQCYSVGPRLEGILENCSWGLPRLEGDLEGLTPRPRVLEYHQSQKYHPRNRVWGLVKVPRSKQSWVTIPRRGLQFTMADKLELEIWGTQKGRPRLEWSSVSVASNLEGLTQMKPRDTPRQIFSQVASPISGLGLATLEGLATVQWAPRPRVWPRPRQKALETCQFRYKGLCQAGLAWTRLEGLPRQLEKTDGLETPRVGLMQNLEGLPRGTCYQVSGRCQVGLNGYPRWGGLWSSPRLESFQTPRFLEDPRGLDVWVSGTVCGLTSGKRAALELEVWKDPRRPRCVQVTYTVWFGAGDITTTQGLGLVPRCCKSPRVPRAWMGLWAVVSPRGNSTSWVPRPRTNLESLEVCLEAPRGLSAPRCDVGVSSADGSPRGIKVTWKQGTARGSPRLEGLYVVASPWAQDGDSLEDKLENWTRLEPRPRGNLESTLELEPRGGLFKGGVPRYRITVTAVYSGGLEAAAPRSVWGFRGLGLLEVPRLEAGPRAVWRLEPRDDPRPRGTPRVVALAWGGLVPRRHQLERGQATHYTFCIQSRGLESTVCRNVSSQTQTATLEPRNLEHSGSFKLEWVTVSTVALAGQGPRPRGPRDLESLEHLEPRDNRIRWKALEPRWFLESLEWGLELELEMGCGLESLEASTRCLEQARCLEHWRHKLELEPRQWIWGLRVPRDPRANSNSGQPRYIKGLVSLEPRQPRPRKDGPRILEGLVGLGLVGLLEQPRVVGLSPRKASAPRIYSGYGLKHFLEPRTPRGLGLLEGLELEV
modifications: left off: a dimerising Fc or GST
notes: Extracellular domain of mouse IL27RA fused to a wild type BALB/c mouse gamma2a constant region Fc tag
- AUC0-24 ([3]; IP, 100 μg): 98.2 µg·h/mL
- Cl/F ([3]; IP, 100 μg): 0.983 mL/h
- Tmax ([3]; IP, 100 μg): 1 h
- t1/2 λz (terminal half-life) ([3]; IP, 100 μg): 5.17 h
- Cmax ([3]; IP, 100 μg, mouse serum): 13200 ng/mL
- AUCINF ([3]; IP, 100 μg): 102 µg·h/mL
- AUC0-24 ([3]; IV, 100 μg): 157 µg·h/mL
- Cl ([3]; IV, 100 μg): 0.618 mL/h
- Vss ([3]; IV, 100 μg): 3.05 mL
- t1/2 λz (terminal half-life) ([3]; IV, 100 μg): 5.25 h
- Co (extrapolated concentration at time zero) ([3]; IV, 100 μg, mouse serum): 36.2 µg/mL
- AUCINF ([3]; IV, 100 μg): 162 µg·h/mL
- AUC0-24 ([3]; SC, 100 μg): 56.5 µg·h/mL
- Tmax ([3]; SC, 100 μg): 3 h
- Cmax ([3]; SC, 100 μg, mouse serum): 7950 ng/mL
- clearance compared to IL-27RA-Fc5 ([3]; female C57B1/6 mice): more rapid clearance

From patent publication US20100093076A1, “SOLUBLE IL-27 RECEPTOR” (priority 2006, published 2010)
